The assay concerns the target thrombin.

For recombinant AsKunitz (natural protein), the inhibition of the enzymatic activity of thrombin on a chromogenic substrate (Vmax against the reaction without inhibitor), IC50 came out at 650 nM.

The values are drawn from publication PMC7901972.
